Assay results as given in patent publication US20190135908A1 (Novartis, published 2019).
Changes are numbered by the printed parent chain. One block for each binder: values may come before it.

Experiments:
[1] = target: T1, Mouse His-GDF15: HIS-tagged mouse GDF15 (mouse, UniProt Q9Z0J7 189-303); test: Biacore SPR, IgG captured via anti-human Fc, GDF15 in flow
T1 construct: not shown: His tag
T1 sequence (looked up): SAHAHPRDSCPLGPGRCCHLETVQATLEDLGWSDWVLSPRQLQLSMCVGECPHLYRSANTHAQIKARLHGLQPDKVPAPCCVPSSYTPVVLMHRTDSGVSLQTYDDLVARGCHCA
Procedure: (§1) Biacore assay is based on surface plasmon resonance (SPR) and were used to determine the binding affinity of antibodies to GDF15.
(§2) Anti-human Fc capture antibody was immobilized at 0.5 μg/ml on CMS chip in all four flow cells to achieve 8000 to 12,000 resonance units (RU) on the surface. Anti-hGDF15 antibodies were captured at flow rate […], at 0.25 to 0.5 μg/ml on the chip to get about 30 RU in flow cells 2, 3 and 4. GDF15 ligand was flowed at […] over captured antibodies and reference flow cell 1 for 600 and 1200 seconds contact time. Eight doses serially diluted 1 to 2, ranging from 20 to 0.156 nM, were tested. All cycles were repeated twice, regenerated between cycles with 3M MgCl₂ at flow […], 20 seconds contact time. Data were normalized by subtracting reference flow cell results. Data were fit with 1:1 Kinetics model with RI (bulk refractive index) set constant at 0.

[2] = target: T2, Human GDF15 native: naturally produced human GDF15 purchased from Peprotech (human, UniProt Q99988 195-308); test: as above
T2 construct: Bought protein
T2 sequence: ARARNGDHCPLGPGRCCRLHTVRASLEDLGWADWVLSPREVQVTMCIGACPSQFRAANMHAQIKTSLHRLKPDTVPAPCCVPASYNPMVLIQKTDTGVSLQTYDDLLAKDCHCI
Procedure: as §1, §2

[3] = target: T3, Cyno His-GDF15: HIS-tagged cyno GDF15 (cynomolgus, UniProt G7PWZ3 197-308, limits assumed); test: as above
T3 construct: not shown: His tag
T3 sequence (looked up): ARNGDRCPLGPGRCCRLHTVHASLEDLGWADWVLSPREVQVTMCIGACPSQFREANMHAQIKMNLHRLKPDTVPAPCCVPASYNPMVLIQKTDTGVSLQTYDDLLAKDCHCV
Procedure: as §1, §2

[4] = target: T4, Rat GDF15 HIS: HIS-tagged rat GDF15 (rat, UniProt Q9Z0J6 189-303, limits assumed); test: as above
T4 construct: also called Rat His-GDF15; not shown: His tag
T4 sequence (looked up): T1 sequence (looked up) with A4L, Q63L, K75R, R110Q
Procedure: as §1, §2

[5] = target: T5, Human His-GDF15: HIS-tagged human GDF15 (human, UniProt Q99988 195-308); test: as above
T5 construct: not shown: His tag
T5 sequence: T2 sequence
Procedure: as §1, §2

[6] = target: T6, GDF15 mutant Q247R (wrist region), albumin fusion (human, UniProt Q99988 195-308); test: direct ELISA on coated albumin-fusion GDF15 variant
T6 construct: not shown: albumin fusion partner
T6 chain: T2 sequence with Q53R
Procedure: (§3) Antibody epitope was determined by a direct ELISA method with GDF15 mutants. Albumin fusion GDF15 mutants were coated in wells of a 96-well EIA plate. After blocking, serially diluted anti-hGDF15 human antibodies were added to the GDF15-coated wells, followed by incubation at an ambient temperature for a few hours. Antibody binding was detected using an anti-human IgG antibody conjugated with horseradish peroxidase (HRP) and HRP substrate.

[7] = target: T7, GDF15 mutant D289R (finger tip region), albumin fusion (human, UniProt Q99988 195-308); test: as above
T7 construct: not shown: albumin fusion partner
T7 chain: T2 sequence with D95R
Procedure: as §3

[8] = target: T8, GDF15 mutant W228R (wrist region), albumin fusion (human, UniProt Q99988 195-308); test: as above
T8 construct: not shown: albumin fusion partner
T8 chain: T2 sequence with W34R
Procedure: as §3

[9] = target: T9, GDF15 mutant M253R (wrist region), albumin fusion (human, UniProt Q99988 195-308); test: as above
T9 construct: not shown: albumin fusion partner
T9 chain: T2 sequence with M59R
Procedure: as §3

[10] = target: T10, GDF15 mutant S278R (back-of-hand), albumin fusion (human, UniProt Q99988 195-308); test: as above
T10 construct: not shown: albumin fusion partner
T10 chain: T2 sequence with S84R
Procedure: as §3

[11] = target: T11, GDF15 mutant S231R (knuckle region), albumin fusion (human, UniProt Q99988 195-308); test: direct ELISA: albumin fusion GDF15 mutant coated on the plate, serially diluted antibody, anti-human IgG-HRP detection
T11 construct: not shown: albumin fusion partner
T11 chain: T2 sequence with S37R
Procedure: as §3

[12] = target: T2, Human GDF15 native: naturally produced …; test: Biacore SPR (rounded from Table 2, human GDF15 native); Biacore, not SET
Procedure: as §2

[13] = target: T12, GDF15 mutant L294R (knuckle region), albumin fusion (human, UniProt Q99988 195-308); test: direct ELISA on coated albumin-fusion GDF15 mutant
T12 construct: not shown: albumin fusion partner
T12 chain: T2 sequence with L100R
Procedure: as §3

[14] = target: T13, GDF15 mutant I285R (knuckle region), albumin fusion (human, UniProt Q99988 195-308); test: direct ELISA on coated albumin-fusion GDF15 mutant
T13 construct: not shown: albumin fusion partner
T13 chain: T2 sequence with I91R
Procedure: as §3

[15] = target: T2, Human GDF15 native: naturally produced …; test: Biacore SPR (rounded from Table 2, human GDF15 native)
Procedure: as §2

[16] = target: T14, human GDF15 (target of the SET measurements; form not stated) (human, UniProt Q99988 195-308, limits assumed); test: solution equilibrium titration (SET); SET, not Biacore
T14 sequence: T2 sequence

- Kd [1]: 0.0568 nM
- koff [1]: 0.000613 s⁻¹
- kon [1]: 1.08e+07 M⁻¹ s⁻¹
- Kd [2]: 0.0113 nM
- koff [2]: 0.000374 s⁻¹
- kon [2]: 3.3e+07 M⁻¹ s⁻¹
- Kd [3]: 0.0134 nM
- koff [3]: 0.000278 s⁻¹
- kon [3]: 2.07e+07 M⁻¹ s⁻¹
- Kd [4]: 0.0232 nM
- koff [4]: 0.000451 s⁻¹
- kon [4]: 1.95e+07 M⁻¹ s⁻¹
- Kd [5]: 0.00262 nM
- koff [5]: 0.000247 s⁻¹
- kon [5]: 9.42e+07 M⁻¹ s⁻¹
- binding result [6]: binds
- binding result [7]: binds
- binding result [8]: binds
- binding result [9]: binds
- binding result [10]: binds
- binding result [11]: binds
- Kd [12]: 0.011 nM
- binding result [13]: no binding
- binding result [14]: no binding
B1: ABGDF15-A (antibody, human IgG1, kappa, V domains shown)
VH: EVQLVQSGAEVKKPGESLKISCKGSGYSFTDYWISWVRQMPGKGLEWMGIIDPSGSYTIYSPSFQGQVTISADKSISTAYLQWSSLKASDTAMYYCARVSYYGGYFDIWGQGTLVTVSS
VL: DIQMTQSPSSLSASVGDRVTITCRASQSISNNLNWYQQKPGKAPKLLIYAASNLQSGVPSRFSGSGSGTDFTLTISSLQPEDFATYYCFQLDHSPFTFGQGTKVEIKR
notes: captured through anti-human Fc in the Biacore assay

- Kd [15]: 0.088 nM
- Kd [1]: 0.154 nM
- koff [1]: 0.000343 s⁻¹
- kon [1]: 2.23e+06 M⁻¹ s⁻¹
- Kd [2]: 0.0882 nM
- koff [2]: 0.000512 s⁻¹
- kon [2]: 5.8e+06 M⁻¹ s⁻¹
- Kd [3]: 0.12 nM
- koff [3]: 0.000694 s⁻¹
- kon [3]: 5.79e+06 M⁻¹ s⁻¹
- Kd [4]: 0.138 nM
- koff [4]: 0.000365 s⁻¹
- kon [4]: 2.63e+06 M⁻¹ s⁻¹
- Kd [5]: 0.137 nM
- koff [5]: 0.000533 s⁻¹
- kon [5]: 3.9e+06 M⁻¹ s⁻¹
- binding result [6]: binds
- binding result [7]: binds
- binding result [8]: binds
- binding result [9]: binds
- binding result [10]: binds
- binding result [11]: binds
- Kd [16]: 0.02 nM
- binding result [13]: no binding
- binding result [14]: no binding
B2: ABGDF15-G (antibody, human IgG1, kappa, V domains shown)
VH: QVQLVQSGAEVKKPGSSVKVSCKASGGTFSSHYINWVRQAPGQGLEWMGGIIPAFGGANYAQKFQGRVTITADESTSTAYMELSSLRSEDTAVYYCARFGSVYVSRYSSYYHMDVWGQGTLVTVSS
VL: DIQMTQSPSSLSASVGDRVTITCRASQTIYRSLAWYQQKPGKAPKLLIYGASILQSGVPSRFSGSGSGTDFTLTISSLQPEDFATYYCLQRYTSPFTFGQGTKVEIKR
notes: as for B1
